Where two headings read alike, the source gives them in different places.
T1: liprin-α2_CC2N E380R (human, UniProt O75334 300-404, E380R)
T1 sequence: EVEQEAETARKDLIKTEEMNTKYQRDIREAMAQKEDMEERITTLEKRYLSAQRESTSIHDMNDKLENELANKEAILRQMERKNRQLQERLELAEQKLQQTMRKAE

T2: liprin-α2_CC2N A350S (human, UniProt O75334 300-404, A350S)
T2 sequence: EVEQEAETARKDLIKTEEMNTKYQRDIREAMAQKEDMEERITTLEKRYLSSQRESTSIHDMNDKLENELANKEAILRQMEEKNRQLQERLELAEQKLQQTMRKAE

T3: liprin-α2_CC2 (human, UniProt O75334 259-542)
T3 chain: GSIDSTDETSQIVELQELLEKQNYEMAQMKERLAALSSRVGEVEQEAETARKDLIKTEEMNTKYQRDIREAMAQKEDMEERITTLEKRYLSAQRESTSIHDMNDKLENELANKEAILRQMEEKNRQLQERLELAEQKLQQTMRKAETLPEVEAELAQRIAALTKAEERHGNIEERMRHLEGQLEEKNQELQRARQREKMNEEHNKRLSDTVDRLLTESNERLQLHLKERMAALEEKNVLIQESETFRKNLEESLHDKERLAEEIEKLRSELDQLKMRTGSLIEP

B1: liprin-α2_CC2N (domain or fragment)
chain: EVEQEAETARKDLIKTEEMNTKYQRDIREAMAQKEDMEERITTLEKRYLSAQRESTSIHDMNDKLENELANKEAILRQMEEKNRQLQERLELAEQKLQQTMRKAE

Key:
Experiment in all cases: ITC
[1] = biological target: RIM1_C2B R1236E
[2] = biological target: RIM1_C2B K1240E
[3] = biological target: RIM1_C2B L1245Q
[4] = biological target: RIM1_C2B L1245Q; remark: listed apart in the source
[5] = biological target: RIM1_C2B R1236E; remark: listed apart in the source
[6] = biological target: RIM1_C2B K1240E; remark: listed apart in the source
[7] = biological target: T1, liprin-α2_CC2N E380R
[8] = biological target: T2, liprin-α2_CC2N A350S
[9] = biological target: liprin-α2_CC2N E379R
[10] = biological target: liprin-α2_CC2N R383A
[11] = biological target: T1, liprin-α2_CC2N E380R; remark: listed apart in the source
[12] = biological target: T3, liprin-α2_CC2
[13] = biological target: B1
[14] = biological target: liprin-α2_CC2N E379R; remark: listed apart in the source
[15] = biological target: liprin-α2_CC2N R383A; remark: listed apart in the source

| Kd [1] | Kd [2] | Kd [3] | Kd [4] | Kd [5] | Kd [6] | Kd [7] | Kd [8] | Kd [9] | Kd [10] | Kd [11] | Kd [12] | Kd [13] | Kd [14] | Kd [15] | Binder |
| --- | --- | --- | --- | --- | --- | --- | --- | --- | --- | --- | --- | --- | --- | --- | --- |
| 27 µM | 25 µM | > 100 µM | > 100 µM | 27 µM | 25 µM | – | – | – | – | – | – | – | – | – | B1 |
| – | – | – | – | – | – | 8.2 µM | 5.7 µM | 23 µM | 24 µM | 8.2 µM | 5 µM | 4 µM | 23 µM | 24 µM | RIM1_C2B (domain or fragment) GPAQLVGRQTLATPAMGDIQIGMEDKKGQLEVEVIRARSLTQKPGSKSTPAPYVKVYLLENGACIAKKKTRIARKTLDPLYQQSLVFDESPQGKVLQVIVWGDYGRMDHKCFMGVAQILLEELDLSSMVIGWYKLFPPSSLVDPTLAPLTRRASQSSLESSSGPPCIRS |

Source: article doi:10.1101/2024.08.29.610253 (2024)
